Assay results published in paper PMC10307626, “Structural basis of NINJ1-mediated plasma membrane rupture in cell death” (Nature, 2023).

B1: hNINJ1∆1–36 (domain or fragment, human, UniProt Q92982 37-152, looked up)
chain: NVNHYASKKSAAESMLDIALLMANASQLKAVVEQGPSFAFYVPLVVLISISLVLQIGVGVLLIFLVKYDLNNPAKHAKLDFLNNLATGLVFIIVVVNIFITAFGVQKPLMDMAPQQ
notes: ninjurin-1 (NINJ1), human, UniProt Q92982, printed as hNINJ1∆1–36 (residues 1–36 removed); probably as the wild type (8×His and TEV site, cleaved); also called truncated hNINJ1; source: E. coli Rosetta2 (DE3), purified
B2: hNINJ1 Q91A (natural protein, human, UniProt Q92982 1-152, looked up)
chain: MDSGTEEYELNGGLPPGTPGSPDASPARWGWRHGPINVNHYASKKSAAESMLDIALLMANASQLKAVVEQGPSFAFYVPLVVLISISLVLAIGVGVLLIFLVKYDLNNPAKHAKLDFLNNLATGLVFIIVVVNIFITAFGVQKPLMDMAPQQ
notes: ninjurin-1 (NINJ1), human, UniProt Q92982, residues 1–152, point mutant; source: E. coli Rosetta2 (DE3), purified (DDM, Ni-NTA, TEV cleavage); not shown: 8×His, N-terminal, cleaved
B3: hNINJ1 D53A (natural protein, human, UniProt Q92982 1-152, looked up)
chain: MDSGTEEYELNGGLPPGTPGSPDASPARWGWRHGPINVNHYASKKSAAESMLAIALLMANASQLKAVVEQGPSFAFYVPLVVLISISLVLQIGVGVLLIFLVKYDLNNPAKHAKLDFLNNLATGLVFIIVVVNIFITAFGVQKPLMDMAPQQ
notes: as for B2
B4: full-length, wild-type human NINJ1 (ninjurin-1), residues 1–152 (natural protein, UniProt Q92982 1-152, looked up)
chain: MDSGTEEYELNGGLPPGTPGSPDASPARWGWRHGPINVNHYASKKSAAESMLDIALLMANASQLKAVVEQGPSFAFYVPLVVLISISLVLQIGVGVLLIFLVKYDLNNPAKHAKLDFLNNLATGLVFIIVVVNIFITAFGVQKPLMDMAPQQ
notes: ninjurin-1 (NINJ1), human, UniProt Q92982, residues 1–152; residues 39–141 are modelled in the filament structure; residues of the site probably remain at the N-terminus after cleavage; Forms filaments of no fixed number of subunits; also called hNINJ1; hNINJ1(1–152); source: E. coli Rosetta2 (DE3), extracted from membranes with DDM, purified (Ni-NTA, TEV cleavage, SEC on Superose 6); not shown: …
B5: hNINJ1 I134F (natural protein, human, UniProt Q92982 1-152, looked up)
chain: MDSGTEEYELNGGLPPGTPGSPDASPARWGWRHGPINVNHYASKKSAAESMLDIALLMANASQLKAVVEQGPSFAFYVPLVVLISISLVLQIGVGVLLIFLVKYDLNNPAKHAKLDFLNNLATGLVFIIVVVNFFITAFGVQKPLMDMAPQQ
notes: as for B2
B6: hNINJ1 L121F (natural protein, human, UniProt Q92982 1-152, looked up)
chain: MDSGTEEYELNGGLPPGTPGSPDASPARWGWRHGPINVNHYASKKSAAESMLDIALLMANASQLKAVVEQGPSFAFYVPLVVLISISLVLQIGVGVLLIFLVKYDLNNPAKHAKLDFLNNFATGLVFIIVVVNIFITAFGVQKPLMDMAPQQ
notes: as for B2
B7: hNINJ1 A47L (natural protein, human, UniProt Q92982 1-152, looked up)
chain: MDSGTEEYELNGGLPPGTPGSPDASPARWGWRHGPINVNHYASKKSLAESMLDIALLMANASQLKAVVEQGPSFAFYVPLVVLISISLVLQIGVGVLLIFLVKYDLNNPAKHAKLDFLNNLATGLVFIIVVVNIFITAFGVQKPLMDMAPQQ
notes: as for B2
B8: hNINJ1 G95L (natural protein, human, UniProt Q92982 1-152, looked up)
chain: MDSGTEEYELNGGLPPGTPGSPDASPARWGWRHGPINVNHYASKKSAAESMLDIALLMANASQLKAVVEQGPSFAFYVPLVVLISISLVLQIGVLVLLIFLVKYDLNNPAKHAKLDFLNNLATGLVFIIVVVNIFITAFGVQKPLMDMAPQQ
notes: as for B2
B9: hNINJ1 V82F (natural protein, human, UniProt Q92982 1-152, looked up)
chain: MDSGTEEYELNGGLPPGTPGSPDASPARWGWRHGPINVNHYASKKSAAESMLDIALLMANASQLKAVVEQGPSFAFYVPLVFLISISLVLQIGVGVLLIFLVKYDLNNPAKHAKLDFLNNLATGLVFIIVVVNIFITAFGVQKPLMDMAPQQ
notes: as for B2
B10: hNINJ1 L121W (natural protein, human, UniProt Q92982 1-152, looked up)
chain: MDSGTEEYELNGGLPPGTPGSPDASPARWGWRHGPINVNHYASKKSAAESMLDIALLMANASQLKAVVEQGPSFAFYVPLVVLISISLVLQIGVGVLLIFLVKYDLNNPAKHAKLDFLNNWATGLVFIIVVVNIFITAFGVQKPLMDMAPQQ
notes: as for B2
B11: hNINJ1 T123L (natural protein, human, UniProt Q92982 1-152, looked up)
chain: MDSGTEEYELNGGLPPGTPGSPDASPARWGWRHGPINVNHYASKKSAAESMLDIALLMANASQLKAVVEQGPSFAFYVPLVVLISISLVLQIGVGVLLIFLVKYDLNNPAKHAKLDFLNNLALGLVFIIVVVNIFITAFGVQKPLMDMAPQQ
notes: as for B2
B12: hNINJ1 V82W (natural protein, human, UniProt Q92982 1-152, looked up)
chain: MDSGTEEYELNGGLPPGTPGSPDASPARWGWRHGPINVNHYASKKSAAESMLDIALLMANASQLKAVVEQGPSFAFYVPLVWLISISLVLQIGVGVLLIFLVKYDLNNPAKHAKLDFLNNLATGLVFIIVVVNIFITAFGVQKPLMDMAPQQ
notes: as for B2
B13: hNINJ1 I84F (natural protein, human, UniProt Q92982 1-152, looked up)
chain: MDSGTEEYELNGGLPPGTPGSPDASPARWGWRHGPINVNHYASKKSAAESMLDIALLMANASQLKAVVEQGPSFAFYVPLVVLFSISLVLQIGVGVLLIFLVKYDLNNPAKHAKLDFLNNLATGLVFIIVVVNIFITAFGVQKPLMDMAPQQ
notes: as for B2
B14: hNINJ1 K45Q (natural protein, human, UniProt Q92982 1-152, looked up)
chain: MDSGTEEYELNGGLPPGTPGSPDASPARWGWRHGPINVNHYASKQSAAESMLDIALLMANASQLKAVVEQGPSFAFYVPLVVLISISLVLQIGVGVLLIFLVKYDLNNPAKHAKLDFLNNLATGLVFIIVVVNIFITAFGVQKPLMDMAPQQ
notes: as for B2
B15: hNINJ1 A138L (natural protein, human, UniProt Q92982 1-152, looked up)
chain: MDSGTEEYELNGGLPPGTPGSPDASPARWGWRHGPINVNHYASKKSAAESMLDIALLMANASQLKAVVEQGPSFAFYVPLVVLISISLVLQIGVGVLLIFLVKYDLNNPAKHAKLDFLNNLATGLVFIIVVVNIFITLFGVQKPLMDMAPQQ
notes: as for B2

Biological target: the molecule itself
Assay: negative-stain TEM; 0.02 mg/ml purified protein on glow-discharged carbon-coated copper grids, 2% uranyl acetate; single-point mutants taken directly after TEV cleavage of the 8×His tag

Binding result, binds:
B1
B2
B3
B4
B5
B6
B7
B8
B9
B10
B11
B12
B13
B14
B15
